The record followed here is patent US20020147129A1.

One may read the pIC50 as the IC50 on a negative log10 scale, so that one unit is a factor of ten. Read a low pIC50 as a large IC50.

pIC50: −log10 of the molar value.

For the assay, the target named is embryonic chicken AT4 receptor (chicken). The assay can be described thus: competition for [125I]Ang IV binding, E13 chicken chorioallantoic membranes.
Chain of embryonic chicken AT4 receptor (chicken) (F1NNE7 entry or part of it): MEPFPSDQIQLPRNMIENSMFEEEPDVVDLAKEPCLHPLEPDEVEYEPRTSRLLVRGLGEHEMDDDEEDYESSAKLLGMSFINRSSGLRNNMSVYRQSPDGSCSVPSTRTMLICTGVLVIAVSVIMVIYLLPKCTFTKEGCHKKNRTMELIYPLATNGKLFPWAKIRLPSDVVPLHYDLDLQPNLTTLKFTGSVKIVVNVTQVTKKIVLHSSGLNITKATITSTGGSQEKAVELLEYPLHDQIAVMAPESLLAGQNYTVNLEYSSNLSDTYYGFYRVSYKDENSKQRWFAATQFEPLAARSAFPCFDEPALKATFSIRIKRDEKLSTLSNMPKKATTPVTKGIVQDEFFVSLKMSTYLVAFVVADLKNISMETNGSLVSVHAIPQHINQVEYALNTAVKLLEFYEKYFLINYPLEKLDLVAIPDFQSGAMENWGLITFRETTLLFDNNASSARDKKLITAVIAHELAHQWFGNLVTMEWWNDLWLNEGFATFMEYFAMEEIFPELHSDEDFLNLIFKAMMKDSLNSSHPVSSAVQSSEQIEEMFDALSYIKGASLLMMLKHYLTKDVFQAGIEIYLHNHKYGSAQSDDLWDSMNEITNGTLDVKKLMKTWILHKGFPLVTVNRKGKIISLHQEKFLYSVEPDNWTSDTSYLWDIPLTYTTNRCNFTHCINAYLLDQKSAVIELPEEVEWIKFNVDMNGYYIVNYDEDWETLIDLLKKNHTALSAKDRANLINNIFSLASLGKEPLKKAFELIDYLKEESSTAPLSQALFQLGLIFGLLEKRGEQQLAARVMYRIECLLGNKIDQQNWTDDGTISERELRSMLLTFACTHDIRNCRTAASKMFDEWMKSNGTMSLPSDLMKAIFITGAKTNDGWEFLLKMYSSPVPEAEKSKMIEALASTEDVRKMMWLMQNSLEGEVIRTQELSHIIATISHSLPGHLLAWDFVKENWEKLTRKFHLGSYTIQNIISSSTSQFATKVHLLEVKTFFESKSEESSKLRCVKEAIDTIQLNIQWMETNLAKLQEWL

In turn, Nle^1-Y-I-amide (peptide) had a pIC50 of 5.66.
